Experimental data: patent publication US20140341881A1 (DERMADIS, published 2014)
Substitutions are numbered along the chain they refer to. Each block holds one binder with its values, some of them ahead of it.

How the values were obtained:
human kallikrein 2 (hK2) [1] = target: T1, human kallikrein 2 (hK2) (human, UniProt P20151 25-261); experiment: cell-based or functional assay
[2] = target: T2, prostate specific antigen (PSA, hK3) (human, UniProt P07288 25-261); experiment: cell-based or functional assay
[3] = target: T3, human chymotrypsin (Chtr) (human, UniProt P17538 19-263); experiment: cell-based or functional assay
T3 sequence (P17538 19-263): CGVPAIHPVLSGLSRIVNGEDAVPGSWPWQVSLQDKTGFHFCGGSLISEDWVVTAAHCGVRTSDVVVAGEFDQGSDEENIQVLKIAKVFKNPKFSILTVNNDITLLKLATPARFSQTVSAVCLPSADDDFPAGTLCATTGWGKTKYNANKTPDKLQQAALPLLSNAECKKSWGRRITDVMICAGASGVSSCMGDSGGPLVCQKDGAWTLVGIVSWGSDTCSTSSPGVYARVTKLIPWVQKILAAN

[4] = target: T4, human plasma kallikrein (PK) (human, UniProt P03952 20-638); experiment: cell-based or functional assay
T4 sequence (P03952 20-638 limits assumed): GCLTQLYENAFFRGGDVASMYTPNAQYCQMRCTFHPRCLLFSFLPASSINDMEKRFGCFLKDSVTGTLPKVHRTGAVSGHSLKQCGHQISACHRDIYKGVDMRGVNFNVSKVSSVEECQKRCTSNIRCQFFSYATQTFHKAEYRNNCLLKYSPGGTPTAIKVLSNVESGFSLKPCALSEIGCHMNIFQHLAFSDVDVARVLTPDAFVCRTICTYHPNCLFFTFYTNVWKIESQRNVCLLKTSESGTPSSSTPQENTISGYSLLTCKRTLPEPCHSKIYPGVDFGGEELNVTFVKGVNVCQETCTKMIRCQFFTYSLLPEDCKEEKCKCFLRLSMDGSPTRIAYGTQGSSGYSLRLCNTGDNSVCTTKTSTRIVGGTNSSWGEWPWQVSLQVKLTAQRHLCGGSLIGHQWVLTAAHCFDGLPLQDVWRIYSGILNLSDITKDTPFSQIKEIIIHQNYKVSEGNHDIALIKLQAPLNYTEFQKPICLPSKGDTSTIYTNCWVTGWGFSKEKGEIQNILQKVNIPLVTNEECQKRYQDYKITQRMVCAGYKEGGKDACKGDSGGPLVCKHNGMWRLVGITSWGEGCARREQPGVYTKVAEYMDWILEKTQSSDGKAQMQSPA

[5] = target: T5, human neutrophil elastase (HNE) (human, UniProt P08246 30-247, limits assumed); experiment: cell-based or functional assay
T5 sequence (looked up): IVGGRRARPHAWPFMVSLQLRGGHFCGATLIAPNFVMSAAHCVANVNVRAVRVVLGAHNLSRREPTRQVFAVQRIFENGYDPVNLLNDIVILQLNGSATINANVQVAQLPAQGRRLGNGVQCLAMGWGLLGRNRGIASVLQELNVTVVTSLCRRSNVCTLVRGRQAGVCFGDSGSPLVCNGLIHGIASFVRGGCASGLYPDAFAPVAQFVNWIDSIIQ

thrombin [6] = experiment: cell-based or functional assay
[7] = target: T6, human kallikrein 14 (hK14) (human, UniProt Q9P0G3 25-251, limits assumed); experiment: cell-based or functional assay
T6 sequence (looked up): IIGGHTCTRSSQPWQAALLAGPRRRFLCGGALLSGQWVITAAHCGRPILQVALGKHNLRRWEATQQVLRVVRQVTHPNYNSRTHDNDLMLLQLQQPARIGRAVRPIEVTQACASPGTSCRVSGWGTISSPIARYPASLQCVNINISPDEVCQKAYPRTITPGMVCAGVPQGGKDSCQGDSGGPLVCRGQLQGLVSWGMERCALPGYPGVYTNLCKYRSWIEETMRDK

human kallikrein 5 (hK5) = target: T7, human kallikrein 5 (hK5) (human, UniProt Q9Y337 67-293, limits assumed); experiment: cell-based or functional assay
T7 sequence (looked up): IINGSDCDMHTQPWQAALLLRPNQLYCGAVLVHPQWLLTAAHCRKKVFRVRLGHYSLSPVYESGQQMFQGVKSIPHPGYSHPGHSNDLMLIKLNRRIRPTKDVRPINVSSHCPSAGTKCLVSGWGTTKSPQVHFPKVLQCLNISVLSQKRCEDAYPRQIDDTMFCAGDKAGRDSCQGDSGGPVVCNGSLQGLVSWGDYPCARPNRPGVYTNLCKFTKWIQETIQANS

human kallikrein 6 (hK6) = human kallikrein 6 (hK6) (human, UniProt Q92876 22-244); experiment: cell-based or functional assay
human kallikrein 8 (hK8) = target: T8, human kallikrein 8 (hK8) (human, UniProt O60259 33-260); experiment: cell-based or functional assay
T8 sequence (looked up): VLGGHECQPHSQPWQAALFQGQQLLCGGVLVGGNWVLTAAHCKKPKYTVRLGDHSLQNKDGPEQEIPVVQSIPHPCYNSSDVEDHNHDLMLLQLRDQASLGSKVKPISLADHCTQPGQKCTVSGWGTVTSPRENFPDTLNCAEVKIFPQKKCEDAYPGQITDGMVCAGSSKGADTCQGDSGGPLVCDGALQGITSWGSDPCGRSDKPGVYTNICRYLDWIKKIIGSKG

[8] = target: T9, human kallikrein 13 (hK13) (human, UniProt Q9UKR3 26-277, limits assumed); experiment: cell-based or functional assay
T9 sequence (looked up): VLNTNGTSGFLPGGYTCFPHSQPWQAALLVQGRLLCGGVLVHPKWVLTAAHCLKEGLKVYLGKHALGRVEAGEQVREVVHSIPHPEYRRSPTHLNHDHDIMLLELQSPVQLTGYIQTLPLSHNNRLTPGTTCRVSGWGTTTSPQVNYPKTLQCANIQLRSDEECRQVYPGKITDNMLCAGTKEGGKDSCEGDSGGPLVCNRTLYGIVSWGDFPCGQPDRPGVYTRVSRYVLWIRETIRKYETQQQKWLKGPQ

[9] = target: T3, human chymotrypsin (Chtr); experiment: cell-based or functional assay; remark: listed apart in the source
[10] = target: T4, human plasma kallikrein (PK); experiment: cell-based or functional assay; remark: listed apart in the source
[11] = target: T10, urokinase plasminogen activator (uPA) (UniProt P00749 21-431, limits assumed); experiment: cell-based or functional assay
[12] = target: T5, human neutrophil elastase (HNE); experiment: cell-based or functional assay; remark: listed apart in the source
thrombin [13] = experiment: cell-based or functional assay; remark: listed apart in the source
[14] = target: T6, human kallikrein 14 (hK14); experiment: cell-based or functional assay; remark: listed apart in the source
[15] = target: T6, human kallikrein 14 (hK14); experiment: residual hK14 activity against [I0]/[E0]
Procedure: (§1) SI values of rAAT, rACT, and their variants were determined with hK14 incubating the protease with varying concentrations of inhibitor. After an incubation of 4 hours at 37° C. in reaction buffer (50 mM Tris, pH 7.5, 150 mM NaCl, 0.05% Triton X-100, 0.01% BSA), the residual activity was detected by the addition of fluorescent substrate (Boc-Val-Pro-Arg-AMC). Fluorescence was measured with excitation at 340 nm (±15) and emission at 485 nm (±10) in black 96 well plates using a microplate fluorescence reader FLₓ800 (Bio-Tek Instruments, Inc.). The SI value corresponds to the abscissa intercept of the linear regression analysis of fractional velocity (velocity of inhibited enzyme reaction (vi)/velocity of uninhibited enzyme reaction (v₀)) vs. the molar ratio of the inhibitor to enzyme ([I₀]/[E₀]).

[16] = target: T6, human kallikrein 14 (hK14); experiment: residual hK14 activity after 4 h at 37 C against [I0]/[E0]
Procedure: as §1

human kallikrein 2 (hK2) [17] = target: T1, human kallikrein 2 (hK2); experiment: cell-based or functional assay; remark: listed apart in the source
[18] = target: T2, prostate specific antigen (PSA, hK3); experiment: cell-based or functional assay; remark: listed apart in the source
human kallikrein hK1 = human kallikrein hK1 (human, UniProt P06870 25-262); experiment: cell-based or functional assay
[19] = target: T10, urokinase plasminogen activator (uPA); experiment: cell-based or functional assay; remark: listed apart in the source
human kallikrein 2 (hK2) [20] = target: T1, human kallikrein 2 (hK2); experiment: progress curve, pseudo-first order, fluorogenic substrate
Procedure: (§2) Under these conditions, a fixed amount of enzyme (2 nM) was mixed with different concentrations of inhibitor (0-800 nM) and an excess of substrate (10 μM). Each reaction was made in reaction buffer (50 mM Tris pH 7.5, 150 mM NaCl, 0,05% Triton X-100, 0.01% BSA) at 25° C. for 45 min and the rate of product formation was measured using a FLₓ800 fluorescence 96-well microplate reader (Biotek, USA). In this model, inhibition is considered to be irreversible over the course of reaction and the progress of enzyme activity is expressed by product formation (P), beginning at a rate (vz) and is inhibited over time (t) at a first-order rate (kobs), rate constant that is dependent only on inhibitor concentration.

human kallikrein 2 (hK2) [21] = target: T1, human kallikrein 2 (hK2); experiment: residual enzyme activity against [I]o/[E]o, fluorogenic substrate
Procedure: (§3) The stoichiometry of inhibition (SI) values were determined for the inhibition of rACTWT and its variants with hK2 and different other enzymes. An initial test was made with a molar excess of rACT (100 fold) over hK2, PSA, hK1, chymotrypsin (Chtr), plasma kallikrein (PK), urokinase (uPA) and human neutrophile elastase (HNE) enzymes. The reaction was carried out for 30 min at 25° C. (90 min at 37° C. for PSA) in reaction buffer (50 mM Tris pH 7.5, 150 mM NaCl, 0,05% Triton X-100, 0.01% BSA) and residual enzyme activity was measured by adding fluorescent substrates (Z-Phe-Arg-AMC for hK1, hK2 and PK, Suc-Ala-Ala-Pro-Phe-AMC for Chtr, Z-Gly-Gly-Arg-AMC for uPA, MeOSuc-Ala-Ala-Pro-Val-AMC for HNE, and CFP-TFRSA-YFP (TFRSA SEQ ID NO:137) for PSA). Activity of enzyme in presence of inhibitors was compared to uninhibited reaction. For reactions where an inhibition was observed, SI was determined by incubating different concentrations of recombinant serpins. Using linear regression analysis of fractional activity (velocity of inhibited enzyme reaction/velocity of uninhibited enzyme reaction) versus the molar ratio of the inhibitor to enzyme ([Iₒ]/[Eₒ]), the stoichiometry of inhibition, corresponding to the abscissa intercept, was obtained.

[22] = target: T4, human plasma kallikrein (PK); experiment: cell-based or functional assay; remark: listed apart in the source
[23] = target: T4, human plasma kallikrein (PK); experiment: progress curve, pseudo-first order, fluorogenic substrate
Procedure: as §2

[24] = target: T4, human plasma kallikrein (PK); experiment: residual enzyme activity against [I]o/[E]o, fluorogenic substrate
Procedure: as §3

- INHIBITION % (human kallikrein 2 (hK2) [17]): 100%
- INHIBITION % [18]: 0%
- INHIBITION % (human kallikrein hK1): 0%
- INHIBITION % [19]: 0%
- kon (human kallikrein 2 (hK2) [20]): 2440 M⁻¹ s⁻¹
- SI (stoichiometry of inhibition) (human kallikrein 2 (hK2) [21]): 34
B4: rACT8.3 (other)
chain: MRGSHHHHHHSRHPNSPLDEENLTQENQDRGTHVDLGLASANVDFAFSLYKQLVLKAPDKNVIFSPLSISTALAFLSLGAHNTTLTEILKGLKFNLTETSEAEIHQSFQHLLRTLNQSSDELQLSMGNAMFVKEQLSLLDRFTEDAKRLYGSEAFATDFQDSAAAKKLINDYVKNGTRGKITDLIKDLDSQTMMVLVNYIFFKAKWEMPFDPQDTHQSRFYLSKKKWVMVPMMSLHHLTIPYFRDEELSCTVVELKYTGNASALFILPDQDKMEEVEAMLLPETLKRWRDSLEFREIGELYLPKFSISRDYNLNDILLQLGIEEAFTSKADLSGITGARNLAVSQVVHKAVLDVFEEGTEASAATAVKIRGRSELVETRTIVRFNRPFLMIIVPTDTQNIFFMSKVTNPKQA
notes: recombinant ACT variant, RSL substrate peptide RGRSE; N-terminal His tag, E. coli TG1; also called MD83; MD 83

- INHIBITION % (human kallikrein 2 (hK2) [17]): 100%
- INHIBITION % (human kallikrein hK1): 0%
- INHIBITION % [22]: 100%
- INHIBITION % [19]: 0%
- kon (human kallikrein 2 (hK2) [20]): 6260 M⁻¹ s⁻¹
- kon [23]: 6220 M⁻¹ s⁻¹
- SI (stoichiometry of inhibition) (human kallikrein 2 (hK2) [21]): 25
- SI (stoichiometry of inhibition) [24]: 18
B5: rACT6.2 (other)
chain: B4 chain with R370T, G371R, E374I, L375D
notes: recombinant ACT variant, RSL substrate peptide RRSID; N-terminal His tag, E. coli TG1; also called MD62; MD 62

The next lines start with the binder.

B1: AATE8 (other, human)
chain: HHHHHHEDPQGDAAQKTDTSHHDQDHPTFNKITPNLAEFAFSLYRQLAHQSNSTNIFFSPVSIATAFAMLSLGTKADTHDEILEGLNFNLTEIPEAQIHEGFQELLRTLNQPDSQLQLTTGNGLFLSEGLKLVDKFLEDVKKLYHSEAFTVNFGDTEEAKKQINDYVEKGTQGKIVDLVKELDRDTVFALVNYIFFKGKWERPFEVKDTEEEDFHVDQVTTVKVPMMKRLGMFNIQHCKKLSSWVLLMKYLGNATAIFFLPDEGKLQHLENELTHDIITKFLENEDRRSASLHLPKLSITGTYDLKSVLGQLGITKVFSNGADLSGVTEEAPLKLSKAVHKAVLTIDEKGTEAAGAMFLEALQRAIPPEVKFNKPFVFLMIEQNTKSPLFMGKVVNPTQK
notes: mature; also called rAATE8
- Percentage inhibition (human kallikrein 2 (hK2) [1]): 19%
- Percentage inhibition [2]: 0%
- Percentage inhibition [3]: 19%
- Percentage inhibition [4]: 100%
- Percentage inhibition [5]: 0%
- Percentage inhibition (thrombin [6]): 0%
- Percentage inhibition [7]: 100%
- Percentage inhibition (human kallikrein 5 (hK5)): 100%
- Percentage inhibition (human kallikrein 6 (hK6)): 100%
- Percentage inhibition (human kallikrein 8 (hK8)): 36%
- Percentage inhibition [8]: 30%
- % Inhibition [9]: 19%
- % Inhibition [10]: 100%
- % Inhibition [11]: 0%
- % Inhibition [12]: 0%
- % Inhibition (thrombin [13]): 0%
- % Inhibition [14]: 100%
- SI (stoichiometry of inhibition) [15]: 7.4
- SI (stoichiometry of inhibition) [16]: 7.4

B2: AATG9 (other, human)
chain: B1 chain with A361T, L362V, Q363D, R364Y
notes: mature; also called rAATG9
- Percentage inhibition (human kallikrein 2 (hK2) [1]): 0%
- Percentage inhibition [2]: 0%
- Percentage inhibition [3]: 100%
- Percentage inhibition [4]: 0%
- Percentage inhibition [5]: 0%
- Percentage inhibition (thrombin [6]): 0%
- Percentage inhibition [7]: 100%
- Percentage inhibition (human kallikrein 5 (hK5)): 30%
- Percentage inhibition (human kallikrein 6 (hK6)): 0%
- Percentage inhibition (human kallikrein 8 (hK8)): 0%
- Percentage inhibition [8]: 0%
- % Inhibition [9]: 100%
- % Inhibition [10]: 0%
- % Inhibition [11]: 0%
- % Inhibition [12]: 0%
- % Inhibition (thrombin [13]): 0%
- % Inhibition [14]: 100%
- SI (stoichiometry of inhibition) [15]: 1.2
- SI (stoichiometry of inhibition) [16]: 1.2

B3: rACT5.18 (other)
chain: B4 chain with R370T, G371E, S373V, E374S, L375P
notes: recombinant ACT variant, RSL substrate peptide ERVSP; N-terminal His tag, E. coli TG1; also called MD518
- INHIBITION % (human kallikrein 2 (hK2) [17]): 73%
- INHIBITION % [18]: 0%
- INHIBITION % (human kallikrein hK1): 0%
- INHIBITION % [19]: 0%
- kon (human kallikrein 2 (hK2) [20]): 595 M⁻¹ s⁻¹
- SI (stoichiometry of inhibition) (human kallikrein 2 (hK2) [21]): 139
